The values below come from PMC9352680, “A comprehensive thermodynamic model for RNA binding by the Saccharomyces cerevisiae Pumilio protein PUF4”.

A value given as a limit tells only on which side of the number the result lay.

The term Kd denotes the constant that tells how readily two partners part at equilibrium. A low value points to tighter binding.

The labels stand for the following.
T1: PUF4 RNA-binding domain (Saccharomyces cerevisiae, UniProt P25339 537-888)
T1 sequence: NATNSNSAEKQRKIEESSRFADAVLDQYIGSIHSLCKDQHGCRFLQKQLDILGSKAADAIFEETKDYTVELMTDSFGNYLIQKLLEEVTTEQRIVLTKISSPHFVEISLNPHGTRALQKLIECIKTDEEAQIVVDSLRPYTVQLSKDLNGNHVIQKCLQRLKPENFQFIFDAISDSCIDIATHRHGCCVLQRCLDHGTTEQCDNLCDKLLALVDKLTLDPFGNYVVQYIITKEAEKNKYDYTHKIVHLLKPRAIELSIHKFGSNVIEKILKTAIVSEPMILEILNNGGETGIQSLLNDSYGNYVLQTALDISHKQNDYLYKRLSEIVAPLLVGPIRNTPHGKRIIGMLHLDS

B1: Ic_S1_P3E.1_K3.1_C3.1_H3.1_A3.1_[T5C]_F3.1_[T7G]_[A8C]_T3.1 (ssRNA)
RNA: UCUCUUUGUACAGCUCUCUU
B2: Ic_S1_P3E.1_K3.1_C3.1_H3.1_A3.1_[T5A]_[A6C]_F3.1_[T7G]_[A8T]_T3.1 (ssRNA)
RNA: UCUCUUUGUAACGUUCUCUU
B3: Ic_S1_P3E.1_K3.1_C3.1_H3.1_A3.1_[T5A]_[A6T]_F3.1_[A8G]_T3.1 (ssRNA)
RNA: UCUCUUUGUAAUUGUCUCUU
B4: Ic_S1_P3E.1_K3.1_C3.1_H3.1_A3.1_[T5A]_[A6C]_F3.1_[A8C]_T3.1 (ssRNA)
RNA: UCUCUUUGUAACUCUCUCUU
B5: Ic_S1_P3E.1_K3.1_C3.1_H3.1_A3.1_[T5C]_[A6T]_F3.1_[A8T]_T3.1 (ssRNA)
RNA: UCUCUUUGUACUUUUCUCUU
B6: Ic_S1_P3E.1_K3.1_C3.1_H3.1_A3.1_[T5A]_[A6T]_F3.1_[T7C]_[A8C]_T3.1 (ssRNA)
RNA: UCUCUUUGUAAUCCUCUCUU
B7: Ic_S1_P3E.1_K3.1_C3.1_H3.1_A3.1_[T5A]_[A6C]_F3.1_[T7G]_[A8G]_T3.1 (ssRNA)
RNA: UCUCUUUGUAACGGUCUCUU
B8: Ic_S1_P3E.1_K3.1_C3.1_H3.1_A3.1_[T5A]_[A6C]_F3.1_[A8T]_T3.1 (ssRNA)
RNA: UCUCUUUGUAACUUUCUCUU
B9: Ic_S1_P3E.1_K3.1_C3.1_H3.1_A3.1_[T5A]_[A6T]_F3.1_[A8T]_T3.1 (ssRNA)
RNA: UCUCUUUGUAAUUUUCUCUU
B10: Ic_S1_P3E.1_K3.1_C3.1_H3.1_A3.1_[T5A]_[A6T]_F3.1_[T7G]_[A8T]_T3.1 (ssRNA)
RNA: UCUCUUUGUAAUGUUCUCUU
B11: Ic_S1_P3E.1_K3.1_C3.1_H3.1_A3.1_[T5A]_[A6T]_F3.1_[A8C]_T3.1 (ssRNA)
RNA: UCUCUUUGUAAUUCUCUCUU
B12: Ic_S1_P3E.1_K3.1_C3.1_H3.1_A3.1_[T5A]_[A6C]_F3.1_[T7C]_[A8T]_T3.1 (ssRNA)
RNA: UCUCUUUGUAACCUUCUCUU
B13: Ic_S1_P3E.1_K3.1_C3.1_H3.1_A3.1_[T5A]_[A6C]_F3.1_[T7A]_T3.1 (ssRNA)
RNA: UCUCUUUGUAACAAUCUCUU
B14: Ic_S1_P3E.1_K3.1_C3.1_H3.1_A3.1_[T5C]_[A6T]_F3.1_[A8C]_T3.1 (ssRNA)
RNA: UCUCUUUGUACUUCUCUCUU
B15: Ia_S4_P5E.1_K5.1_C5.1_H5.1_[A4C]_A5.1_F5.1_T5.1 (ssRNA)
RNA: UUUGACAACUGAUCGUUCUUUCUUGUCUUAUUAUUCUUUCUCGAUCAGUUGUCUUU
B16: Ia_S4_P5E.1_K5.1_C5.1_H5.1_A5.1_[T5C]_F5.1_T5.1 (ssRNA)
RNA: UUUGACAACUGAUCGUUCUUUCUUGUACUAUUAUUCUUUCUCGAUCAGUUGUCUUU
B17: Ia_S4_P5E.1_K5.1_C5.1_H5.1_A5.1_[T6A]_F5.1_T5.1 (ssRNA)
RNA: UUUGACAACUGAUCGUUCUUUCUUGUAUAAUUAUUCUUUCUCGAUCAGUUGUCUUU
B18: Ia_S4_P5E.1_K5.1_C5.1_H5.1_A5.1_[T6C]_F5.1_T5.1 (ssRNA)
RNA: UUUGACAACUGAUCGUUCUUUCUUGUAUCAUUAUUCUUUCUCGAUCAGUUGUCUUU
B19: Ic_S1_P3E.1_K3.1_C3.1_H3.1_A3.1_[T5A]_[A6C]_F3.1_[T7A]_[A8C]_T3.1 (ssRNA)
RNA: UCUCUUUGUAACACUCUCUU
B20: Ic_S1_P3E.1_K3.1_C3.1_H3.1_A3.1_[T5A]_[A6G]_F3.1_[A8G]_T3.1 (ssRNA)
RNA: UCUCUUUGUAAGUGUCUCUU
B21: Ic_S1_P3E.1_K3.1_C3.1_H3.1_A3.1_[T5A]_[A6C]_F3.1_[T7A]_[A8T]_T3.1 (ssRNA)
RNA: UCUCUUUGUAACAUUCUCUU
B22: Ic_S1_P3E.1_K3.1_C3.1_H3.1_A3.1_[T5A]_[A6T]_F3.1_[T7A]_[A8G]_T3.1 (ssRNA)
RNA: UCUCUUUGUAAUAGUCUCUU
B23: Ic_S1_P3E.1_K3.1_C3.1_H3.1_A3.1_[T5A]_[A6C]_F3.1_[T7A]_[A8G]_T3.1 (ssRNA)
RNA: UCUCUUUGUAACAGUCUCUU
B24: Ic_S1_P3E.1_K3.1_C3.1_H3.1_A3.1_[T5C]_F3.1_[T7A]_[A8G]_T3.1 (ssRNA)
RNA: UCUCUUUGUACAAGUCUCUU
B25: Ic_S1_P3E.1_K3.1_C3.1_H3.1_A3.1_[T5C]_F3.1_[T7A]_[A8C]_T3.1 (ssRNA)
RNA: UCUCUUUGUACAACUCUCUU
B26: Ic_S1_P3E.1_K3.1_C3.1_H3.1_A3.1_[T5A]_[A6T]_F3.1_[T7C]_[A8T]_T3.1 (ssRNA)
RNA: UCUCUUUGUAAUCUUCUCUU
B27: Ic_S1_P3E.1_K3.1_C3.1_H3.1_A3.1_[T5A]_[A6T]_F3.1_[T7G]_[A8G]_T3.1 (ssRNA)
RNA: UCUCUUUGUAAUGGUCUCUU
B28: Ic_S1_P3E.1_K3.1_C3.1_H3.1_A3.1_[T5A]_[A6G]_F3.1_[T7C]_[A8G]_T3.1 (ssRNA)
RNA: UCUCUUUGUAAGCGUCUCUU
B29: Ic_S1_P3E.1_K3.1_C3.1_H3.1_A3.1_[T5A]_[A6G]_F3.1_[T7C]_[A8C]_T3.1 (ssRNA)
RNA: UCUCUUUGUAAGCCUCUCUU
B30: Ic_S1_P3E.1_K3.1_C3.1_H3.1_A3.1_[T5C]_F3.1_[T7C]_[A8T]_T3.1 (ssRNA)
RNA: UCUCUUUGUACACUUCUCUU
B31: Ic_S1_P3E.1_K3.1_C3.1_H3.1_A3.1_[T5A]_[A6G]_F3.1_[T7C]_[A8T]_T3.1 (ssRNA)
RNA: UCUCUUUGUAAGCUUCUCUU
B32: Ic_S1_P3E.1_K3.1_C3.1_H3.1_A3.1_[T5A]_[A6T]_F3.1_[T7C]_T3.1 (ssRNA)
RNA: UCUCUUUGUAAUCAUCUCUU
B33: Ic_S1_P3E.1_K3.1_C3.1_H3.1_A3.1_[T5A]_[A6G]_F3.1_[A8T]_T3.1 (ssRNA)
RNA: UCUCUUUGUAAGUUUCUCUU
B34: Ic_S1_P3E.1_K3.1_C3.1_H3.1_A3.1_[T5A]_[A6T]_F3.1_[T7A]_T3.1 (ssRNA)
RNA: UCUCUUUGUAAUAAUCUCUU
B35: Ic_S1_P3E.1_K3.1_C3.1_H3.1_A3.1_[T5A]_[A6G]_F3.1_[T7C]_T3.1 (ssRNA)
RNA: UCUCUUUGUAAGCAUCUCUU
B36: Ic_S1_P3E.1_K3.1_C3.1_H3.1_A3.1_[T5A]_[A6T]_F3.1_[T7C]_[A8G]_T3.1 (ssRNA)
RNA: UCUCUUUGUAAUCGUCUCUU
B37: Ic_S1_P3E.1_K3.1_C3.1_H3.1_A3.1_[T5C]_F3.1_[T7A]_[A8T]_T3.1 (ssRNA)
RNA: UCUCUUUGUACAAUUCUCUU
B38: Ic_S1_P3E.1_K3.1_C3.1_H3.1_A3.1_[T5A]_[A6C]_F3.1_[A8G]_T3.1 (ssRNA)
RNA: UCUCUUUGUAACUGUCUCUU
B39: Ic_S1_P3E.1_K3.1_C3.1_H3.1_A3.1_[T5C]_F3.1_[T7C]_[A8C]_T3.1 (ssRNA)
RNA: UCUCUUUGUACACCUCUCUU
B40: Ic_S1_P3E.1_K3.1_C3.1_H3.1_A3.1_[T5C]_F3.1_[T7C]_[A8G]_T3.1 (ssRNA)
RNA: UCUCUUUGUACACGUCUCUU
B41: Ic_S1_P3E.1_K3.1_C3.1_H3.1_A3.1_[T5C]_F3.1_T3.1 (ssRNA)
RNA: UCUCUUUGUACAUAUCUCUU
B42: Ic_S1_P3E.1_K3.1_C3.1_H3.1_A3.1_[T5A]_[A6T]_F3.1_[T7A]_[A8C]_T3.1 (ssRNA)
RNA: UCUCUUUGUAAUACUCUCUU
B43: Ic_S1_P3E.1_K3.1_C3.1_H3.1_A3.1_[T5A]_[A6C]_F3.1_[T7G]_[A8C]_T3.1 (ssRNA)
RNA: UCUCUUUGUAACGCUCUCUU
B44: Ic_S1_P3E.1_K3.1_C3.1_H3.1_A3.1_[T5A]_[A6C]_F3.1_[T7C]_[A8C]_T3.1 (ssRNA)
RNA: UCUCUUUGUAACCCUCUCUU
B45: Ic_S1_P3E.1_K3.1_C3.1_H3.1_A3.1_[T5A]_[A6C]_F3.1_[T7C]_T3.1 (ssRNA)
RNA: UCUCUUUGUAACCAUCUCUU

For this data set, the target named is T1, PUF4 RNA-binding domain. As to the kind of experiment: Mg; RNA-MaP; 20 mM Na-HEPES pH 7.4, 30 mM KOAc, 0.75 mM MgCl2, 0.1% Tween-20, 5% glycerol, 0.1 mg/mL BSA, 2 mM DTT; 25 C; 0.0125-409.6 nM protein. The settings on record: tags: N-His6-TEV cleaved; C-SNAP kept, Cy3B-labelled; label: tethered on chip by stalled RNA polymerase.
B1 yielded a Kd of 0.0767 µM.
The molecule B2 returned an equilibrium dissociation constant (Kd) of 0.534 µM.
The same measure for B3: 0.352 µM; for B4: 0.373 µM; for B5: 0.0195 µM.
Consider B6, for which the dissociation constant (Kd) was found to be 0.811 µM.
Molecule B7 showed a dissociation constant (Kd) above 2.3 µM.
As for B8, the Kd was found to be 0.0571 µM.
The same measure for B9: 0.034 µM.
On to B10, for which the Kd worked out at 0.329 µM.
The same measure for B11: 0.477 µM; for B12: 0.081 µM; for B13: 0.0993 µM.
The molecule B14 showed a Kd of 0.191 µM. Compared with the last molecule, the Kd is about 1.9-fold higher.
Then B15, with 0.0131 µM.
B16 returned a Kd of 0.00221 µM. This Kd lies about 5.9-fold lower than the previous one.
Then B17, with 0.00442 µM; and B18, with 0.00273 µM; and B19, with 0.531 µM.
B20: binding was characterised by a dissociation constant (Kd) of 1.82 µM.
In turn, B21 returned a Kd of 0.015 µM.
B22 registered a Kd of 0.645 µM. This Kd is about 43-fold higher than that of the molecule before.
Then B23, with 0.491 µM; and B24, with 0.704 µM.
Regarding B25, the Kd worked out at 0.0504 µM. This Kd is about 14-fold lower than that of the molecule before.
In turn, B26 returned a Kd of 0.0702 µM.
The molecule B27 came in with a Kd of 2.03 µM.
B28 showed a Kd of 1.91 µM.
In the case of B29, the affinity, expressed as Kd, was 1.55 µM. This Kd and that of the molecule before are within 1.5-fold of each other.
As for B30, the affinity, expressed as Kd, was 0.00972 µM.
Take B31: binding was put at a Kd of 0.653 µM.
The molecule B32 showed a dissociation constant Kd of 0.758 µM.
B33 showed a dissociation constant Kd of 0.709 µM.
In turn, B34 yielded an equilibrium dissociation constant (Kd) of 0.146 µM.
Regarding B35, the Kd was above 2.3 µM.
Then B36, with 0.867 µM; and B37, with 0.0111 µM.
Molecule B38 yielded a dissociation constant Kd of 0.389 µM.
For the molecule B39, binding was put at a Kd of 0.0418 µM. Against the preceding molecule, the Kd is about 9.3-fold lower.
Turning to B40, the dissociation constant (Kd) came out at 0.0272 µM.
Then B41, with 0.00588 µM; and B42, with 0.56 µM; and B43, with 0.997 µM.
As for B44, the Kd is 0.975 µM.
B45 displayed a dissociation constant (Kd) of 0.959 µM.
